Test results reported in US20260216242A1 (ALMAC DISCOVERY, published 2026).
Changes are numbered by the printed parent chain. Numbers in names are those of the source. Each block holds one binder with its values, some of them ahead of it.

Key:
[1] = target: T1, Human ALPP (leucine zipper) (human); test: BLI, KD app (antigen immobilised on AR2G sensor)
T1 construct: Soluble human ALPP fused to a disulphide stabilised leucine zipper and a His tag; The whole entry is the construct; also called hALPP; PLAP
T1 chain: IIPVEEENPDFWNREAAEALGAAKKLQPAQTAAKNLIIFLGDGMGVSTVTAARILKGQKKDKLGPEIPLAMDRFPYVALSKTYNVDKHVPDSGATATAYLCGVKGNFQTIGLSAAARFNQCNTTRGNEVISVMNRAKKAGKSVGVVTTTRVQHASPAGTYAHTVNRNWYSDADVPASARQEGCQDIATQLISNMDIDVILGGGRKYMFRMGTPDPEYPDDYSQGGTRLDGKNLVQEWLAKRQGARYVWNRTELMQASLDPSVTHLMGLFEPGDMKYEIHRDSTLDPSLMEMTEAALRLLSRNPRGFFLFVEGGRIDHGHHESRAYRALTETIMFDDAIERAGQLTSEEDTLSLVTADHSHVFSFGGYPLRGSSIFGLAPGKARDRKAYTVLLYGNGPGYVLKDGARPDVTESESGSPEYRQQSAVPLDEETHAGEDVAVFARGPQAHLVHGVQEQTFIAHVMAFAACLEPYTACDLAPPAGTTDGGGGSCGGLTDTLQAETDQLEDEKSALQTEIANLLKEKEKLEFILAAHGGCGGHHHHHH
Experimental: Binding kinetics were determined using the Biolayer Interferometry (BLI) Octet K2 or R4 system (Sartorius). […] For KD apparent measurements, the ALPP proteins were immobilised in sodium acetate pH5 buffer to AR2G sensors using amine coupling. To measure 1:1 interactions, AHC biosensors were used to immobilise Fc-fused proteins. All assays were conducted in HBS-EP with a plate temperature of 25° C. Ka (M⁻¹s⁻¹), Kd (s⁻¹) and KD (nM) values were determined using Octet Data Analysis High Throughput software (Sartorius) for Biolayer Interferometry.

[2] = target: T2, ALPI His homodimer (human, UniProt P09923 20-503); test: ELISA, antigen coated
T2 construct: Whole entry with His tag; used in ELISA and BLI; also called hALPI
T2 sequence: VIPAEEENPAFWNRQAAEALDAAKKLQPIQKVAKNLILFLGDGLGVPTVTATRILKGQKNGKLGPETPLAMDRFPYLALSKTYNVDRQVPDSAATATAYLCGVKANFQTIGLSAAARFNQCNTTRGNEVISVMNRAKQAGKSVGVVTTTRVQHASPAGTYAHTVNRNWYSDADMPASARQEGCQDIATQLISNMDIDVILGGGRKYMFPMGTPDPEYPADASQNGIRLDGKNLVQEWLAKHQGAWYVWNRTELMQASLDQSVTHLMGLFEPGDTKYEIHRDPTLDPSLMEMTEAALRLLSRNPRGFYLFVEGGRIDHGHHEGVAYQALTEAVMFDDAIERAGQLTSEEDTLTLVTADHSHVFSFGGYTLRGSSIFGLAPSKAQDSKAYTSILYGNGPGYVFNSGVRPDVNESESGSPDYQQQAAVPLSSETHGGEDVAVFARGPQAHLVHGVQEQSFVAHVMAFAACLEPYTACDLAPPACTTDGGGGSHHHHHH
Description: ELISA was used to test the binding and specificity of the VHHs. […] Anti-Llama—HRP antibody was used for detection.

[3] = target: T3, Human ALPP (leucine zipper) (human); test: BLI, antigen immobilised
T3 construct: Whole entry: ALPP fused with a cysteine stabilised leucine zipper and His tag; also called hALPP
T3 chain: T1 chain
Experimental: (§1) Binding kinetics were determined using the Biolayer Interferometry (BLI) Octet K2 system (Sartorius). […] All assays were conducted in PBS with a plate temperature of 25° C. Ka (M⁻¹s⁻¹), Kd (s⁻¹) and KD (nM) values were determined using Octet Data Analysis High Throughput software (ForteBio) for Biolayer Interferometry.

[4] = target: T4, Human ALPL (leucine zipper) (human); test: BLI, antigen immobilised
T4 construct: Whole entry: fused with a cysteine stabilised leucine zipper and His tag; also called hALPL
T4 chain: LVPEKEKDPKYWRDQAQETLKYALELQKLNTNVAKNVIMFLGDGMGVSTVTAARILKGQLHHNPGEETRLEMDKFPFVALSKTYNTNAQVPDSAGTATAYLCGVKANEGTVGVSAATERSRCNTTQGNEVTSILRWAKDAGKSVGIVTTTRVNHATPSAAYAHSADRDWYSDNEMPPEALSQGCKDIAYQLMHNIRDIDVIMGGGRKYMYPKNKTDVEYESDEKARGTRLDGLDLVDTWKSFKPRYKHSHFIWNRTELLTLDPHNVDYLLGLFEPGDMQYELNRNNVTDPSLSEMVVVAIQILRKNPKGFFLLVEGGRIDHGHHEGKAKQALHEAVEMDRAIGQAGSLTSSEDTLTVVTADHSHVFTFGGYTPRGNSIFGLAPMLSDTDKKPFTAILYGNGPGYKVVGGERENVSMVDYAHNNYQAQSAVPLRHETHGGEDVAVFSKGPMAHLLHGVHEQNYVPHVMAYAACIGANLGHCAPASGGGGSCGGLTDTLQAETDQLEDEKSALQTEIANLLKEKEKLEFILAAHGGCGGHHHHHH
Experimental: as §1

B1: A06 E06-hFc (S239C + S442C), mixed linkers (A06 - [G4S]1, E06 - [G4S]3) (Fc fusion)
chain 1: QVHLVESGGGLVQAGGSLRLSCAASGRTFLSMGWFRQAPGKEREFVAAISWTGGSTGYADSVKGRFTISRESDKETMYLQMNSLKPEDTAVYYCAARGDVYYGGDDATRYKYWGQGTQVTVSSGGGGSEPKSSDKTHTCPPCPAPELLGGPCVFLFPPKPKDTLMISRTPEVTCVVVDVSHEDPEVKFNWYVDGVEVHNAKTKPREEQYNSTYRVVSVLTVLHQDWLNGKEYKCKVSNKALPAPIEKTISKAKGQPREPQVYTLPPSRDELTKNQVSLYCLVKGFYPSDIAVEWESNGQPENNYKTTPPVLDSDGSFFLYSKLTVDKSRWQQGNVFSCSVMHEALHNHYTQKSLCLSPGK
chain 2: QVHLVESGGGLVQAGGSLRLSCAASRRSFSEYAMGWFRQAPGKEREFVAAIGWSGVIEYADSVKGRFTISRDNAKDTVYLQMNSLKPEDTAVYYCAAGLGIRVVSQTPAYWGQGTQVTVSSGGGGSGGGGSGGGGSEPKSSDKTHTCPPCPAPELLGGPCVFLFPPKPKDTLMISRTPEVTCVVVDVSHEDPEVKFNWYVDGVEVHNAKTKPREEQYNSTYRVVSVLTVLHQDWLNGKEYKCKVSNKALPAPIEKTISKAKGQPREPQVYTLPPSRDELTKNQVSLTCLVKGFYPSDIAVEWESNGQPENNYKTTPPVLDSDGSFFLTSKLTVDKSRWQQGNVFSCSVMHEALHNHYTQKSLCLSPGK
notes: Biparatopic heterodimer; also called #706
Kd [1]: < 0.01 nM
kon [1]: 429000 M⁻¹ s⁻¹

B2: C05 (VHH, not shown: small tags and cut ends)
VHH: QVQLVESGGGLVQAGGSLRLSCAASRRSFSEYAMGWFRQAPGKEREFVAAIGWSGVIEYADSVKGRFTISRDNAKDTVYLQMNSLKPEDTAVYYCAAGLGIRVVSQTPAYWGQGTQVTVSS
binding result [2]: no binding (tested: 500 ng VHH)
Kd [3]: < 0.01 nM
koff [3]: < 1e-07 s⁻¹
kon [3]: 394000 M⁻¹ s⁻¹
binding result [4]: no binding

B3: A08 (VHH, not shown: small tags and cut ends)
VHH: QVQLVESGGGLVQAGESLRLACAASGTIFSGNAVGWYRQAPEKQREWVSSITDYGDTDYAEAVKGRFTISRDNAKNTVYLQMNSLKPEDTAVYYCYVYQRGESEEYWGQGTKVTVSS
binding result [2]: no binding (tested: 500 ng VHH)
Kd [3]: 0.03 nM
koff [3]: 1.2e-05 s⁻¹
kon [3]: 429000 M⁻¹ s⁻¹
binding result [4]: no binding

B4: D10 E10-hFc (S239C + S442C), mixed linkers (D10 - [G4S]1, E10 - [G4S]3) (Fc fusion)
chain 1: QVQLVESGGGLVQPGGSLRLSCAASGSIFSVNTMGWYRQAPGKQRDLVAVATSGGTIHYADSVKGRFTISRDNAKNTVYLQMNSLKPEDTAVYYCNLVVPYGMIAGDHDYWGQGTKVTVSSGGGGSEPKSSDKTHTCPPCPAPELLGGPCVFLFPPKPKDTLMISRTPEVTCVVVDVSHEDPEVKFNWYVDGVEVHNAKTKPREEQYNSTYRVVSVLTVLHQDWLNGKEYKCKVSNKALPAPIEKTISKAKGQPREPQVYTLPPSRDELTKNQVSLYCLVKGFYPSDIAVEWESNGQPENNYKTTPPVLDSDGSFFLYSKLTVDKSRWQQGNVFSCSVMHEALHNHYTQKSLCLSPGK
chain 2: QVQLVESGGGLVQAGGSLRLSCAVSGRALSDYNIGWFRQAPGKEREFVARKTWDGSSTRYDDSVKGRFTVSIEDAKNTAYLQMSSLKTEDTAVYYCAAGRYSRARGWEYDYWGQGTQVTVSSGGGGSGGGGSGGGGSEPKSSDKTHTCPPCPAPELLGGPCVFLFPPKPKDTLMISRTPEVTCVVVDVSHEDPEVKFNWYVDGVEVHNAKTKPREEQYNSTYRVVSVLTVLHQDWLNGKEYKCKVSNKALPAPIEKTISKAKGQPREPQVYTLPPSRDELTKNQVSLTCLVKGFYPSDIAVEWESNGQPENNYKTTPPVLDSDGSFFLTSKLTVDKSRWQQGNVFSCSVMHEALHNHYTQKSLCLSPGK
notes: Biparatopic heterodimer; also called #704
Kd [1]: < 0.01 nM
kon [1]: 385000 M⁻¹ s⁻¹

B5: A06 E10-hFc (S239C + S442C), mixed linkers (A06 - [G4S]1, E10 - [G4S]3) (Fc fusion)
chain 1: B1 chain 1
chain 2: B4 chain 2
notes: Biparatopic heterodimer; also called #707
kon [1]: 421000 M⁻¹ s⁻¹

B6: A06 F05-hFc (S239C + S442C), mixed linkers (A06 - [G4S]1, F05 - [G4S]3) (Fc fusion)
chain 1: B1 chain 1
chain 2: B4 chain 2 with V24A, L29F, S30G, K51R, E73D, D74N, S84N, A104V
notes: Biparatopic heterodimer; also called #708
kon [1]: 426000 M⁻¹ s⁻¹

B7: C06 (VHH, not shown: small tags and cut ends)
VHH: QVQLVESGGGLVQPGGSLRVSCAASGPSLSNYAMGWFRQAPGKEREFVAGISWGGGRTSYTDSVKGRFTISRDNAKNTVYLQMNNLKPEDTGVYYCAGRYGRGRNVEYEYDYWGQGTQVTVSS
binding result [2]: no binding (tested: 500 ng VHH)
Kd [3]: < 0.01 nM
koff [3]: < 1e-07 s⁻¹
kon [3]: 368000 M⁻¹ s⁻¹
binding result [4]: no binding

Continued, values first:

binding result [2]: no binding (tested: 500 ng VHH)
kon [3]: 213000 M⁻¹ s⁻¹
binding result [4]: no binding
B8: B11 (VHH, not shown: small tags and cut ends)
VHH: B7 VHH with Q3H, L11S, P14A, V20L

binding result [2]: no binding (tested: 500 ng VHH)
Kd [3]: < 0.01 nM
koff [3]: < 1e-07 s⁻¹
kon [3]: 97700 M⁻¹ s⁻¹
binding result [4]: no binding
B9: D11 (VHH, not shown: small tags and cut ends)
VHH: B7 VHH with L11S, P14A, V20L, Q118M

binding result [2]: no binding (tested: 500 ng VHH)
Kd [3]: < 0.01 nM
koff [3]: < 1e-07 s⁻¹
kon [3]: 175000 M⁻¹ s⁻¹
binding result [4]: no binding
B10: D08 (VHH, not shown: small tags and cut ends)
VHH: B7 VHH with Q3H, L11S, P14A, V20L, Q118K
